Laboratory results from patent US20240352438A1, “MEANS AND METHODS FOR DETOXIFYING OCHRATOXIN A” (DSM Austria GmbH, priority 2021, published 2024).

Assays:
[1] = OTA detoxification activity assay (specific activity, fluorescence reduction ex/em 390/450 nm); type: biochemical; settings: SEQ ID NO: 1 = 100%
Summary of the method: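 Recombinant enzyme preparation with 200 ng/mL OTA in 100 mM sodium phosphate, at pH 6.0 and pH 7.5, 37° C. Degradation followed as the fall in fluorescence at ex/em 390/450 nm. Specific activity taken from the initial linear slope; one unit degrades 1 μmol OTA per min at a starting OTA of […].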

[2] = Enzymatic activity comparison: activity remaining after 65° C. for 10 min at pH 6.0, relative to SEQ ID NO: 1; type: physicochemical
Description: To compare the temperature behavior and thermostability of selected enzymes to one another, enzyme was incubated at 65° C. for 10 min at pH 6.0. The enzymatic activity remaining after incubation was compared to the remaining activity of the enzyme of SEQ ID NO: 1 after incubation, the latter being set to 100%, see Table 16.

| Molecule | Specific OTA detoxification activities in % compared to the enzyme of SEQ ID NO: 1, pH 6.0 [1] [%] | Specific OTA detoxification activities in % compared to the enzyme of SEQ ID NO: 1, pH 7.5 [1] [%] | Enzymatic activity remaining after incubation, compared to SEQ ID NO: 1 (set to 100%) [2] [%] |
| --- | --- | --- | --- |
| 284 (protein, exemplary polypeptide) MTTRTRILTAFLSLLAANACAADAAPAAPHTVVLRAARMFDGASGKLVDHPQLTIVGNKIVRIAQGDKAEVPAGAEVVDLGDATLLPGFIDAHVHLSGQSSDNWYGDFFDNMMRFPAEQALYGAYYARITLEAGFTSVRDVGSTDWVALGLRNAIDAGKVPGPRMLVSNYAVGSTGGHADQDPIPPHKLPLAGPLQGVCNGPEECRAAVRYQIKYGANVIKFMPSGGVLSLSDPFDAPELSQDEMNAVIGESHAWGRKVAAHAHGDKAAKMAVAAGVDSIEHGSFIEDDTLRAMKAKNVYLVPTISAIAHVEEKIGTFPPVIAEKGRAAAAHLRQTFRHAVQIGVPIALGTDAGVGAHGSNAREFRYMVENGLTPAQALLAGTANAARLLGTFDRVGTLEAGKLADVVAVPGNPIADITVTERPLFVMKDGVVVRRDAVR | 48 | 23 | 13 |
| 285 (protein, exemplary polypeptide) MTTRTRILTAFLSLLAANACAADAAPAAPHTVVLRAARMFDGASGKLVDHPQLTIVGNKIVRIAQGDKAEVPAGAEVVDLGDATLLPGFIDAHVHLSGQSSDNWYGDFFDNMMRFPAEQALYGAYYARITLEAGFTSVRDVGSTDWVALGLRNAIDAGKVPGPRMLVSNYAVGSTGGHADQDPIPPHKLPLAGPLQGVCNGPEECRAAVRYQIKYGANVIKFMPSGGVLSLSDPLDAPELSQDEMNAVIGESHAWGRKVAAHAHGDKAAKMAVAAGVDSIEHGSFIEDDTLRAMKAKNVYLVPTISAIAHVEEKIGTFPPVIAEKGRAAAAHLRQTFRHAVQIGVPIALGTDAGVGAHGSNAREFRYMVENGLTPAQALLAGTANAARLLGTFDRVGTLEAGKLADVVAVPGNPIADITVTERPLFVMKDGVVVRRDAVR | 28 | 21 | 63 |
| 290 (protein, exemplary polypeptide) MTTRTRILTAFLSLLAANACAADAAPAAPHTVVLRAARMFDGASGKLVDHPQLTIVGNKIVRIAQGDKAEVPAGAEVVDLGDATLLPGFIDAHVHLSGQSSDNWYGDFFDNMMRFPAEQALYGAYYARITLEAGFTSVRDVGSTDWVALGLRNAIDAGKVPGPRMLVSNYAVGSTGGHADQDPIPPHKLPLAGPLQGVCNGPEECRAAVRYQIKYGANVIKFMPSGGVLSLSDPVDAPELSQDEMNAVIGESHAWGRKVAAHAHGDKAAKMAVAAGVDSIEHGSFIEDDTLRAMKAKNVYLVPTISAAAHVEEKIGTFPPVIAEKGRAAAAHLRQTFRHAVQIGVPIALGTDAGVPAHGSNAREFRYMVENGLTPAQALLAGTANAARLLGTFDRVGTLEAGKLADVVAVPGNPIADITVTERPLFVMKDGVVVRRDAVR | 160 | 122 | 53 |
| 289 (protein, exemplary polypeptide) MTTRTRILTAFLSLLAANACAADAAPAAPHTVVLRAARMFDGASGKLVDHPQLTIVGNKIVRIAQGDKAEVPAGAEVVDLGDATLLPGFIDAHVHLSGQSSDNWYGDFFDNMMRFPAEQALYGAYYARITLEAGFTSVRDVGSTDWVALGLRNAIDAGKVPGPRMLVSNYAVGSTGGHADQDPIPPHKLPLAGPLQGVCNGPEECRAAVRYQIKYGANVIKFMPSGGVLSLSDPVDAPELSQDEMNAVIGESHAWGRKVAAHAHGDKAAKMAVAAGVDSIEHGSFIEDDTLRAMKAKNVYLVPTISAAAHVEEKIGTFPPVIAEKGRAAAAHLRQTFRHAVQIGVPIALGTDAGVFAHGSNAREFRYMVENGLTPAQALLAGTANAARLLGTFDRVGTLEAGKLADVVAVPGNPIADITVTERPLFVMKDGVVVRRDAVR | 66 | 106 | 63 |
| 286 (protein, exemplary polypeptide) MTTRTRILTAFLSLLAANACAADAAPAAPHTVVLRAARMFDGASGKLVDHPQLTIVGNKIVRIAQGDKAEVPAGAEVVDLGDATLLPGFIDAHVHLSGQSSDNWYGDFFDNMMRFPAEQALYGAYYARITLEAGFTSVRDVGSTDWVALGLRNAIDAGKVPGPRMLVSNYAVGSTGGHADQDPIPPHKLPLAGPLQGVCNGPEECRAAVRYQIKYGANVIKFMPSGGVLSESDPVDAPELSQDEMNAVIGESHAWGRKVAAHAHGDKAAKMAVAAGVDSIEHGSFIEDDTLRAMKAKNVYLVPTISAIAHVEEKIGTFPPTIAEKGRAAAAHLRQTFRHAVQIGVPIALGTDAGVGAHGSNAREFRYMVENGLTPAQALLAGTANAARLLGTFDRVGTLEAGKLADVVAVPGNPIADITVTERPLFVMKDGVVVRRDAVR | 39 | 17 | 33 |
| 291 (protein, exemplary polypeptide) MTTRTRILTAFLSLLAANACAADAAPAAPHTVVLRAARMFDGASGKLVDHPQLTIVGNKIVRIAQGDKAEVPAGAEVVDLGDATLLPGFIDAHVHLSGQSSDNWYGDFFDNMMRFPAEQALYGAYYARITLEAGFTSVRDVGSTDWVALGLRNAIDAGKVPGPRMLVSNYAVGSTGGHADQDPIPPHKLPLAGPLQGVCNGPEECRAAVRYQIKYGANVIKFMPSGGVLSLSDPVDAPELSQDEMNAVIGESHAWGRKVAAHAHGDKAAKMAVAAGVDSIEHGSFIEDDTLRAMKAKNVYLVPTISAAAHVEEKIGTFPPVIAEKGRAAAAHLRQTFRHAVQIGVPIALGTDAGVYAHGSNAREFRYMVENGLTPAQALLAGTANAARLLGTFDRVGTLEAGKLADVVAVPGNPIADITVTERPLFVMKDGVVVRRDAVR | 77 | 79 | 34 |
| 288 (protein, exemplary polypeptide) MTTRTRILTAFLSLLAANACAADAAPAAPHTVVLRAARMFDGASGKLVDHPQLTIVGNKIVRIAQGDKAEVPAGAEVVDLGDATLLPGFIDAHVHLSGQSSDNWYGDFFDNMMRFPAEQALYGAYYARITLEAGFTSVRDVGSTDWVALGLRNAIDAGKVPGPRMLVSNYAVGSTGGHADQDPIPPHKLPLAGPLQGVCNGPEECRAAVRYQIKYGANVIKFMPSGGVLSLSDPVDAPELSQDEMNAVIGESHAWGRKVAAHAHGDKAAKMAVAAGVDSIEHGSFIEDDTLRAMKAKNVYLVPTISAAAHVEEKIGTFPPVIAEKGRAVAAHLRQTFRHAVQIGVPIALGTDAGVGAHGSNAREFRYMVENGLTPAQALLAGTANAARLLGTFDRVGTLEAGKLADVVAVPGNPIADITVTERPLFVMKDGVVVRRDAVR | 29 | 31 | 90 |
| 292 (protein, exemplary polypeptide) MTTRTRILTAFLSLLAANACAADAAPAAPHTVVLRAARMFDGASGKLVDHPQLTIVGNKIVRIAQGDKAEVPAGAEVVDLGDATLLPGFIDAHVHLSGQSSDNWYGDFFDNMMRFPAEQALYGAYYARITLEAGFTSVRDVGSTDWVALGLRNAIDAGKVPGPRMLVSNYAVGSTGGHADQDPIPPHKLPLAGPLQGVCNGPEECRAAVRYQIKYGANVIKFMPSGGVISLSDPVDAPELSQDEMNAVIGESHAWGRKVAAHAHGDKAAKMAVAAGVDSIEHGSFIEDDTLRAMKAKNVYLVPTISAVAHVEEKIGTFPPVIAEKGRAAAAHLRQTFRHAVQIGVPIALGTDAGVGAHGSNAREFRYMVENGLTPAQALLAGTANAARLLGTFDRVGTLEAGKLADVVAVPGNPIADITVTERPLFVMKDGVVVRRDAVR | 77 | 81 | 21 |
| 294 (protein, exemplary polypeptide) MTTRTRILTAFLSLLAANACAADAAPAAPHTVVLRAARMFDGASGKLVDHPQLTIVGNKIVRIAQGDKAEVPAGAEVVDLGDATLLPGFIDAHVHLSGQSSDNWYGDFFDNMMRFPAEQALYGAYYARITLEAGFTSVRDVGSTDWVALGLRNAIDAGKVPGPRMLVSNYAVGSTGGHADQDPIPPHKLPLAGPLQGVCNGPEECRAAVRYQIKYGANVIKFMPSGGVLSLSDPVDAPELSQDEMNAVIGESHAWGRKVAAHAHGDKAAKMAVAAGVDSIEHGSFIEDDTLRAMKAKNVYLVPTISAVAHVEEKIGTFPPVIAEKGRAAAAHLRQTFRHAVQIGVPIALGTDAGVFAHGSNAREFRYMVENGLTPAQALLAGTANAARLLGTFDRVGTLEAGKLADVVAVPGNPIADITVTERPLFVMKDGVVVRRDAVR | 31 | 42 | 36 |
| 287 (protein, exemplary polypeptide) MTTRTRILTAFLSLLAANACAADAAPAAPHTVVLRAARMFDGASGKLVDHPQLTIVGNKIVRIAQGDKAEVPAGAEVVDLGDATLLPGFIDAHVHLSGQSSDNWYGDFFDNMMRFPAEQALYGAYYARITLEAGFTSVRDVGSTDWVALGLRNAIDAGKVPGPRMLVSNYAVGSTGGHADQDPIPPHKLPLAGPLQGVCNGPEECRAAVRYQIKYGANVIKFMPSGGVISLSDPVDAPELSQDEMNAVIGESHAWGRKVAAHAHGDKAAKMAVAAGVDSIEHGSFIEDDTLRAMKAKNVYLVPTISAAAHVEEKIGTFPPVIAEKGRAAAAHLRQTFRHAVQIGVPIALGTDAGVGAHGSNAREFRYMVENGLTPAQALLAGTANAARLLGTFDRVGTLEAGKLADVVAVPGNPIADITVTERPLFVMKDGVVVRRDAVR | 151 | 105 | 28 |
